Assay results reported in the supplement of paper PMC7877785.
± gives the uncertainty stated by the source.

Assay: self-splicing fitness, log relative to wild type (ln ratio); higher = more splicing; Tetrahymena group I intron in knt gene, E. coli kanamycin selection, DiMSum; sequences stand for … in CUCUCU…GGAGGGAAAAGUUAUCAGGCAUGCACCUGGUAGCUAGUCUUUAAACCAAUAGAUUGCAUCGGUUUAAAAGGCAAGACCGUCAAAUUGCGGGAAAGGGGUCAACAGCCGUUCAGUACCAAGUCUCAGGGGAAACUUUGAGAUGGCCUUGCAAAGGGUAUGGUAAUAAGCUGACGGACAUGGUCCUAACCACGCAGCCAAGUCCUAAGUCAACAGAUCUUCUGUUGAUAUGGAUGCAGUUCACAGACUAAAUGUCGGUCGGGGAAGAUGUAUUCUUCUCAUAAGAUAUAGUCGGACCUCUCCUUAAUGGGAGCUAGCGGAUGAAGUGAUGCAACACUGGAGCCGCUGGGAACUAAUUUGUAUGCGAAAGUAUAUUGAUUAGUUUUGGAGUACUCGUGGUCG
Procedure, shortened: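 Six replicate transformations of E. coli BL21(DE3) with a pET-22b(+) library were grown overnight at 37°C or 30°C. The library randomised all eight P1ex-region intron nucleotides, the intron lying in the knt kanamycin-resistance gene, and plates were LB agar with or without 25 μg/mL kanamycin plus 100 μg/mL carbenicillin, 50 μM IPTG and 0.2% rhamnose. Pooled colonies were amplicon-sequenced on an Illumina HiSeq 2500, and fitness is the DiMSum error-weighted combination of wild-type-normalised replicate fold changes, kanamycin versus none.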

Row | Sequence | self-splicing fitness (ln) (30 °C) | self-splicing fitness (ln) (37 °C)
1 | AUGCAGCAAUAUUACGGUCG | -1.41 ± 0.11 | -0.972 ± 0.14
2 | GGAUAGCAAUAUUACGAUGA | -1.04 ± 0.15 | -0.858 ± 0.14
3 | CCGUAGCAAUAUUACGGGAU | -4.51 ± 0.29 | -2.53 ± 0.2
4 | CUGUAGCAAUAUUACGCUCU | -3.47 ± 0.39 | 
5 | GAACAGCAAUAUUACGUCCA | -0.934 ± 0.089 | -0.369 ± 0.1
6 | UUCGAGCAAUAUUACGGCAA | -0.587 ± 0.099 | -0.26 ± 0.12
7 | UACUAGCAAUAUUACGCUCU | -0.792 ± 0.085 | -0.262 ± 0.1
8 | UCGAAGCAAUAUUACGAUUU | -4.4 ± 0.39 | -1.97 ± 0.23
9 | AUCUAGCAAUAUUACGACUC | -0.0532 ± 0.28 | 
10 | CGAAAGCAAUAUUACGCCAG | -0.884 ± 0.14 | -0.307 ± 0.21
11 | UGGCAGCAAUAUUACGCGUG | -1.25 ± 0.14 | -0.356 ± 0.14
12 | AGCCAGCAAUAUUACGCCUU | -1.59 ± 0.16 | -0.556 ± 0.2
13 | UCGCAGCAAUAUUACGGGUC |  | -2.14 ± 0.23
14 | CCACAGCAAUAUUACGUUUG | -1.7 ± 0.054 | -0.24 ± 0.069
15 | ACUGAGCAAUAUUACGUGCU | -3.84 ± 0.41 | -2.28 ± 0.27
16 | CAGAAGCAAUAUUACGGACA | -1.93 ± 0.16 | -0.876 ± 0.13
17 | AUCAAGCAAUAUUACGAUCU | -1.37 ± 0.1 | -0.575 ± 0.12
18 | GCACAGCAAUAUUACGCUUU | -0.861 ± 0.055 | -0.0512 ± 0.068
19 | CCGAAGCAAUAUUACGGACA |  | -1.57 ± 0.2
20 | UUGUAGCAAUAUUACGAGCU | -1.88 ± 0.22 | -0.4 ± 0.2
21 | GAAAAGCAAUAUUACGGUAC | -1.94 ± 0.079 | -1.11 ± 0.09
22 | UGCUAGCAAUAUUACGGAGU | -4.11 ± 0.3 | -2.34 ± 0.24
23 | AAAGAGCAAUAUUACGAUAC |  | -2.18 ± 0.41
24 | AAUUAGCAAUAUUACGUGCU | -2.18 ± 0.12 | -1.33 ± 0.11
25 | GUAAAGCAAUAUUACGGGCU | -1.69 ± 0.069 | -1.24 ± 0.11
26 | UCUCAGCAAUAUUACGUUAU | -2.98 ± 0.095 | -2.8 ± 0.13

Row | Sequence | self-splicing fitness (ln) (30 °C) | self-splicing fitness (ln) (37 °C)
27 | AAAAAGCAAUAUUACGGUCU | -0.167 ± 0.057 | -0.0164 ± 0.073
28 | GUGCAGCAAUAUUACGACAA | -0.582 ± 0.066 | -0.153 ± 0.07
29 | CCCCAGCAAUAUUACGUAUU | -3.55 ± 0.16 | -3.28 ± 0.28
30 | CCCAAGCAAUAUUACGUACU | -3.84 ± 0.19 | -2.46 ± 0.21
31 | GCGUAGCAAUAUUACGUAAC | -3.58 ± 0.27 | -0.0467 ± 0.15
32 | CGUUAGCAAUAUUACGACAC | -2.43 ± 0.21 | -0.891 ± 0.19
33 | ACGGAGCAAUAUUACGGUCU | -3.07 ± 0.21 | -2.44 ± 0.26
34 | CCGGAGCAAUAUUACGUUGC | -2.35 ± 0.32 | 
35 | AUAAAGCAAUAUUACGUAUU | -2.73 ± 0.12 | -1.79 ± 0.13
36 | CCGUAGCAAUAUUACGCUCG | -1.1 ± 0.2 | -0.457 ± 0.23
37 | UUUAAGCAAUAUUACGGAGU | -3.04 ± 0.39 | -1.18 ± 0.43
38 | UGGCAGCAAUAUUACGAUGA | -0.639 ± 0.12 | -0.971 ± 0.14
39 | AACCAGCAAUAUUACGAGCC | -2.85 ± 0.17 | -1.72 ± 0.16
40 | GCUCAGCAAUAUUACGGGUA | -0.401 ± 0.077 | -0.454 ± 0.078
41 | UGGGAGCAAUAUUACGCCUA | -2.63 ± 0.44 | -1.75 ± 0.32
42 | GCAGAGCAAUAUUACGCGCA | -2.97 ± 0.24 | -1.61 ± 0.17
43 | CCCCAGCAAUAUUACGCGUC | -3.21 ± 0.17 | -2.92 ± 0.18
44 | CGGAAGCAAUAUUACGAUUU | -3.62 ± 0.2 | -1.51 ± 0.15
45 | CUAAAGCAAUAUUACGCUUU | -4.2 ± 0.33 | -2.35 ± 0.29
46 | UAACAGCAAUAUUACGUUAG | -2.24 ± 0.087 | -0.961 ± 0.086
47 | UAUGAGCAAUAUUACGUGGU |  | -2.75 ± 0.31
48 | GUUCAGCAAUAUUACGAAAU | -0.0391 ± 0.068 | 0.236 ± 0.12
49 | GCAGAGCAAUAUUACGUUAG | -3.42 ± 0.26 | -1.61 ± 0.17
50 | UUUCAGCAAUAUUACGUUAC | -4.82 ± 0.28 | -2.66 ± 0.16
51 | CAAAAGCAAUAUUACGACCA | -1.95 ± 0.2 | -1.48 ± 0.19
52 | CAUCAGCAAUAUUACGAGCA | -2.05 ± 0.23 | -0.921 ± 0.14

Row | Sequence | self-splicing fitness (ln) (30 °C) | self-splicing fitness (ln) (37 °C)
53 | UUUUAGCAAUAUUACGAGGU | -2.89 ± 0.43 | 
54 | AUAUAGCAAUAUUACGCCGG | -3.65 ± 0.37 | -0.796 ± 0.3
55 | AGGCAGCAAUAUUACGAGUG | -3.63 ± 0.28 | -1.96 ± 0.18
56 | CAUGAGCAAUAUUACGCCCG | -1.56 ± 0.18 | -0.89 ± 0.2
57 | GCCCAGCAAUAUUACGUCAA | -2.62 ± 0.1 | -1.68 ± 0.097
58 | CAUCAGCAAUAUUACGUCGG | -0.265 ± 0.055 | -0.317 ± 0.076
59 | GCUCAGCAAUAUUACGCGCA | -1.77 ± 0.13 | -0.106 ± 0.13
60 | UCAGAGCAAUAUUACGUAAU | -2.52 ± 0.25 | -1.66 ± 0.3
61 | ACUCAGCAAUAUUACGACGA | -0.9 ± 0.087 | -0.164 ± 0.11
62 | AAGCAGCAAUAUUACGUCUU | -1.66 ± 0.075 | -1.05 ± 0.071
63 | GUUCAGCAAUAUUACGUGUA | -0.88 ± 0.078 | -0.647 ± 0.071
64 | GCCAAGCAAUAUUACGGCUC | -1.99 ± 0.071 | -0.526 ± 0.091
65 | CUCGAGCAAUAUUACGUAGG | -1.11 ± 0.11 | -0.804 ± 0.15
66 | ACCGAGCAAUAUUACGACUU | -1.12 ± 0.087 | -0.353 ± 0.11
67 | ACUGAGCAAUAUUACGUAUU | -3.29 ± 0.12 | -1.48 ± 0.097
68 | GUAUAGCAAUAUUACGCAGU |  | -2.33 ± 0.37
69 | UUCAAGCAAUAUUACGUGAA | -0.675 ± 0.089 | -0.479 ± 0.12
70 | GAUCAGCAAUAUUACGGCUG | -3.29 ± 0.19 | -1.12 ± 0.16
71 | UGACAGCAAUAUUACGGUGC | -2.01 ± 0.49 | 
72 | CACCAGCAAUAUUACGGGUC | -2.54 ± 0.07 | -2.17 ± 0.092
73 | GAAAAGCAAUAUUACGCAAG | -2.02 ± 0.11 | -1.46 ± 0.14
74 | UGCGAGCAAUAUUACGCCGU | -3.36 ± 0.23 | -2.54 ± 0.3
75 | UGCCAGCAAUAUUACGCCGA | -2.56 ± 0.37 | -1.07 ± 0.18
76 | ACGGAGCAAUAUUACGUCUU | -2.7 ± 0.35 | -2.06 ± 0.5
77 | UACCAGCAAUAUUACGACGA | -0.586 ± 0.086 | 0.837 ± 0.11
78 | AGAAAGCAAUAUUACGCCAA | -3.75 ± 0.17 | -2.91 ± 0.069
